# Test: soluble on expression in E. coli; label from the status in PepcDB or PDB records
row,Sequence,soluble on expression in E. coli
1,MSHIRVAFAPLDTNPSTCGLETFATQIETLSQMMTAEEMKAELYDCVRRILREQKFDQIRENEAMLRLYKVMGRSSTNLKGRGIYEQLFKKDHFTGSLKFYLQWAEECGKDQMLEEFKDVLKLARDRLSERIEMTAIESGFRDLVDEYFNGESGDMFTRPDETMDLFRFNAGSKKKRRSSVCFLQHNVPINNSGKAAFGPKTKTDLRQACIDRPNYHGISIEEFRFAKWKDTFGEDVDDDYRKRKDSGVVFVKHQVIDTDRQAREEVENRFNANLNPRRRHLSPVSEKTVDDEEEKRSRIYSPLVATKDAHRPALRSKIENPPATVTLSSDTKSASEKDVSDSDDADDDERLKIMTAGRKDGNPPDRSTSISSNYSTASARTSKSGAGLDLMAENKCLEAHAMFSDTVHLASEKTMVLGDDSVFVPERSLATTQIVTDFSVLCDPDPTMTITQERPKKVSNGLNVVYDEAAEPEESQKVEESEVQPEIVLVSPVTQTSPATMFNDIYDDEIEFGFFKPSRGNFVTSTPAQGVHLVNIDEYFGNKEEESTHEQEAPVFVAPTSSTFSKLTRRKSLAANQAVQPSVTESSKPERSDPKDSSIDCLTANLGRRLSIGADEIPNLTENNESEITGCKIRRRSEIIKQGDINPWDETLRKKLMCLVRPPQNMHEFQERAPKIQALRDCEVSGEKLHIQTLIGQGGYAKVYRAVTDDQRTVAVKYEVPSCSWEVYICDQMRNRLKDRGLELMAKCCIMEVMDAYVYSTASLLVNQYHEYGTLLEYANNMKDPNWHITCFLITQMARVVKEVHASKIIHGDIKPDNFMITRKIDDKWGKDALMSNDSFVIKIIDWGRAIDMMPLKNQRFKGRAGTEAFDCPEMVDGRSWTYQADYFGFAATMAVVVAGKYAQLTGASVGDYSLNVDIKRRNILRDACYDVINRFLNIPSCDSLPDWNILIKSFSEIWNEKFEASGWRQAVSKFNEACDLAANQK,not soluble
2,MSSFQLQQLPSLPIKEVFKSLGVCDLLNLCRSSNKSRRLVKKSLKDITFTLKIVAEEKHYKIWLKEDFSKHKARIRAENSNGTSLFKNIRWLMHTFWVETVYLDCTNVEEGDVVKVVEYLKKEKPYYLKLYFECPMISDSLWQLMLNCEADVLIISVDREVKVTFDNVPLLFNCECIILHGVKFSEKGMNLLFKTWQSSKERTLQCVSLTRKLGPFWKKQANEKVVLKGIDVESVEKKRIFKVKKDGIKKSTTYNLVKNDGELATLKFDKQEICFHTENDR,not soluble
3,MISRIHIEEFRDIGDLELFFLPGVNLLIGDNGSGKTSVLKACQYVLGTFFCGFKMDHTPTWTQLTPEAKDFRRRVSSDGDELMKHPIKFNFDLRYEENGQNPIELTDQILTKRNTLGRALTTTFQDHQDYTKGLLEGYATDEGRYRPLPVFVFYSVEDIHTKRKVSHSLFQKYRHMASFGYYHALTENAFLDFWIKRMLILREEEQAGNHELAVVRGALLSALGTDGAGVLQDLSIRINKKAVYWKLLDGREISSEHLPDGLRRVISIVVDLAFRCALLNQTLYQSDSALKSEGTVLIDEIDLHLHPRLQASILKGLRKAFPRLQFIITSHAPMVMSSVDADDKYNIVYKMSYNQEMSQYEALKQSTYGLDVSTIMRMILGLAPRDKQVDERLTHLFDLIDLEKYSEATIALQSLQDQFDDSLPELSKASVMLHFLSSEQNEENH,not soluble
4,GLNSVIKPTKYKPVPDEEPNSTDVEETLKRIQNNDPDLEEVNLNNIMNIPVPTLKACAEALKTNTYVKKFSIVGTRSNDPVAFALAEMLKVNNTLKSLNVESNFISGSGILALVEALQSNTSLIELRIDNQSQPLGNNVEMEIANMLEKNTTLLKFGYHFTQQGPRLRASNAMMNNNDLVRKRRL,soluble
5,GPGSMNLGHAAASSIVVKVAELAKKAFYRLKISSAYSSKLTEAVGTALMSADPEVPVDPNRRSGGHVIRNMIYQHDSSHNIEIVTGWKDQGTREYNQQIAPPAKLDLSPKHPCYPLNEQLVRCSLECPMEMKLAGRIASCNSERKNLMVCLTKNKSWKEEPASAWYKFF,not soluble
6,METEVMKSFNNELSSLFDSKNMSKNKIQDITKAAIKAKSQYKHVVFSVEKLINKCKPDQRLNVLYVIDSIVRASKHQLKEKDTFGPRFMKQFDKFLMPLLKCGQKEKMRTVRTLNLWMSNKVFKESEIQPLREMCKASGLTIDFEEVELAVKGKQADMSIYSGVYKKKPKRSSSSSQPKSRTPTNPHPDDGLLGAGPSSALRSVPDIPNFVLSEDYFLGTISEREMLELVQKFGIDRSGVLSKDKNLLQRALQIFAGSLSQKVEEVLAENNRINGSSIQNVLTKDFEYSDDEEEKEKEPQPEKQKNLPHAQVLLLAQSLLTQPQILAKLAEVLIPQGNPFGLPFPGEHIVPTSSAALTLGAPPPNLMALQQSLPPGFPNQQLGLPNLSGLNQAQLMNVQNAQNMLQLQQRAAQLQALQGNPNAQRNLLMLGNPLLNPFALQHGVNPMLNDLQAAAAAQQQAMLNEAAQSPEKKILELSGGNSGINNSGDVERARLREKEKERESKERRRMGLPPVRIGFTIIASRTLWLKKIPTNIVENDLKQAVESCGEASRVKVIGNRACAYITMENRRSANDVVSKMREVSVAKKMVKVYWARSPGMDSDQFSDLWDSNRGVLEIPYEKLPLDLVALCEGAMLDIESLPIEKKLLYKETGETVISIPPPNIQPPVPHPPPMGFPFQHQLTQLPGQPRPAGLPPGVPPMFNLNAPPPPGIPGYPPAPPPPGVGPPPPQGIPPMGFDPNKPPPPMFQQGFNAGAPPPPFGRGAGPMSSFPPPPRGGMHHMPPPPSFRGGRGGHGGPPPPHFDRRGGGGPPFRPENGRGRLLDQSEMWNREQREMRGGGGAGRDGGREHRDYDRDRSQIDRRRQDDMGARRRSRWGDDDRRDDDRRDDRRDDRRESRRRSPRSPRSPDRRTRRSPSYEREEPPVKKTSVEEETVSSTTLDELKPSVEPTPVPAPIPAPAPELKAAEEPVKIVAEHHEDQTDEVPMDLE,not soluble
7,MSAAEIDEGVFETTATIDNGSFGTRTIRFETGRLALQAAGAVVAYLDDDNMLLSATTASKNPKEHFDFFPLTVDVEERMYAAGRIPGSFFRREGRPSTDAILTCRLIDRPLRPSFVDGLRNEIQIVVTILSLDPGDLYDVLAINAASASTQLGGLPFSGPIGGVRVALIDGTWVGFPTVDQIERAVFDMVVAGRIVEGDVAIMMVEAEATENVVELVEGGAQAPTESVVAAGLEAAKPFIAALCTAQQELADAAGKSGKPTVDFPVFPDYGEDVYYSVSSVATDELAAALTIGGKAERDQRIDEIKTQVVQRLADTYEGREKEVGAALRALTKKLVRQRILTDHFRIDGRGITDIRALSAEVAVVPRAHGSALFERGETQILGVTTLDMIKMAQQIDSLGPETSKRYMHHYNFPPFSTGETGRVGSPKRREIGHGALAERALVPVLPSVEEFPYAIRQVSEALGSNGSTSMGSVCASTLALLNAGVPLKAPVAGIAMGLVSDDIQVEGAVDGVVERRFVTLTDILGAEDAFGDMDFKVAGTKDFVTALQLDTKLDGIPSQVLAGALEQAKDARLTILEVMAEAIDRPDEMSPYAPRVTTIKVPVDKIGEVIGPKGKVINAITEETGAQISIEDDGTVFVGATDGPSAQAAIDKINAIANPQLPTVGERFLGTVVKTTDFGAFVSLLPGRDGLVHISKLGKGKRIAKVEDVVNVGDKLRVEIADIDKRGKISLILVADEDSTAAATDAATVTS,not soluble
8,MAHHHHHHMAAVTQQGNDTRKLRCNVYVASLPLDFDDDQLFDLFSPYGRISSARIMRSKGARQSRGYGFVLFRHASSAEKAIDSLVGYVIGGSRIQVRLAHPEASVAYSGQRGSRSGNSTPGALPEKTLPAASGVITPPPPSSAIISHPNDSGMMVQTYPITTMYPTMYPSVVPQIIAQPQAPVPAAMQQVVFLPQYAQQSNQSTPPTFYMMVPDAMQAVPPTLS,soluble
9,MGSDKIHHHHHHMNIKIAKNAGFCFGVKRAMKMAWDEVEKNDSGIYALGPLIHNKQAVAKYEEKGLKTVNEIDTIPNHENMIIRSHGVPENIYKEAKDKKLKIVDTTCPFVKKIHTVVSEYHNKGYEIIVIGDMKHPEVIGINGWCENSAIIIKTLEQMENMEFDNSKRYCLVAQTTINPELYISIVNKLSDKLEEIVFNDTICSATKTRQESAKELAKEVDCMIVIGGKHSSNTQKLVKVCEDLVPTFAIETKDELDVNTLKKYKNLGITAGASTPNWIIEEVVTFLENL,not soluble
10,GEYKMMMARVAALPEDYQFVFKKIQNYMWNFSAGNGMDMLHIQYELIDLFEAGAAEGRQVLDITGEDVASFADELVANAKTYVSK,soluble
11,RQEQTETLAEERAETVANLEELNALILQRMRTGILVVDSRQAILLANQAALGLLRQDDVQGASLGRHSPMLMHCMKQWRLNPSLRPPTLKVVPDGPTVQPSFISLNREDDQHVLIFLEDISQIAQQAQQMKLAGLGRLTAGIAHEIRNPLGAISHAAQLLQESEELDAPDRRLTQIIQDQSKRMNLVIENVLQLSRRRQAEPQQLDLKEWLQRFVDEYPGRLRNDSQLHLQLGAGDIQTRMDPHQLNQVLSNLVQNGLRYSAQAHGRGQVWLSLARDPESDLPVLEVIDDGPGVPADKLNNLFEPFFTTESKGTGLGLYLSRELCESNQARIDYRNREEGGGCFRITFA,not soluble
12,MSDVAVAETPAVKTPTKASKATKAKATKIPKVKVVAAHPPFINMITEAVSNLKDRKGSSRVAIFKFITAKYTLGDQVNKTNAHLRSALKKGVVSKVLVQTNGIGANGRFRLAVAEKPPAVKKAATGEQKVMKTVAKKAVSGDKAKKTVAKKTGDKVKKVKSPKRIAKPAVKKVTKKAAAPTKSAANETAPKKAAATEAAPKKAAVTKAATKKTPARKAVGTAPKA,soluble
13,SRDSAFRERLLRLAPKYPLVLAVSGGGDSVALALLVKEAGRQAVVAHLDHGLRPESPLDQAFVRALAERLGFPFFTERVEVARIAQARGENLEAVAREVRYAFLHRVAREVGARAILTAHTLDDQAETVLLQLLQGTARATGIREREGIVVRPLLAHTREELRAYLRARGEAWREDPTNQDPALDRNFLRLFVFPLLEERFPAAKRALARFAEARAEEEGVLERQAEARLLPDPRFFVPAFRAAPLLEAPLAVRRRALRRLLEKLGLRPEARLVLLLEEALRGRPQTLPGGVLARRKGGTLFLLPPRPRLPLPPGFRRPAPGDYLERPSGRKRLVDFLAEKGVPRELKPLWPVRAEGNRVVEVLGLYPPPPEEAHMAEALAEAASAFREGEVPVGAVLVLPGRVLRAHNRVEGLRDPTAHAEMLLLREAGPEARGGRLYVTLEPCLMCHHALAQAGVEVVYGAENLKEGALTRFGLPTRARGGVRERECAKLLRDFFARLREGCRSG,soluble
14,MSLVQFASDTDPIVQPDSLSDAGAAAPVTREAVLGAFLRAHRERLAPADVGLPPGRRRRTPGLRREEVAQLAGLSATWVTWLEQGRPVALSARALASLAAALRLSRAERAYLFELAGRRDPQQAGGEAVPAAVMASVHAIRGPAYLLDRQWNALTWNAAAAELFIGWLDGDSQERNLLRAMFVSAPLQALVEDWPHRAGRLVAEFRAHSIRHADDAPMRALIEGLMAESPAFRAAWLSQDVEDREGGRRGFRHPALGALQFEQLTLWPAAAPGLMLVMLLPAEGHHHHHH,not soluble
15,GDEEKRNRAITARRQHLKSVMLQIAATELEKEEGRREAEKQNYLAEH,soluble

# — the DeepSol protein solubility set
